To fix the notation:
B1: GS3313 (nucleic acid)
sense: AUCGUGAAUGGAGCUGUAACUGAAACAACAGCUUUACUAAACGAAAAAUGGGACAAAAUAUUUUACACUGGCAAUACCCAAGUAGGUGUAAUAAUUGCCAAAAAAGCUGCAGAAACUCUUACACCAGUUUGCUUAGAGCUCGGGGGAAUCAAUCCGGCAAUCAUUACGAAAAAUGCAGACCCAUACCUUGCUGCUCGUCGGCUAUUAUGGGGUAAACUAAUGAAUGCUGGACAAGUUUGCAUCAGUCAAAAUUAUAUUCUUGUCGAACAAGAAGUUUUACCAAUUUUCGUAGAGCAUUUGAAAAACACUCUAAAUGAAUUCUAUCCAAAUGGUAUAAGAAAUAGUCCAGAUUUUGGAAGGAUAGUCAAUCAGCGUCAUUUUUCUAGAAUUAAAAAAAU
antisense: AUUUUUUUAAUUCUAGAAAAAUGACGCUGAUUGACUAUCCUUCCAAAAUCUGGACUAUUUCUUAUACCAUUUGGAUAGAAUUCAUUUAGAGUGUUUUUCAAAUGCUCUACGAAAAUUGGUAAAACUUCUUGUUCGACAAGAAUAUAAUUUUGACUGAUGCAAACUUGUCCAGCAUUCAUUAGUUUACCCCAUAAUAGCCGACGAGCAGCAAGGUAUGGGUCUGCAUUUUUCGUAAUGAUUGCCGGAUUGAUUCCCCCGAGCUCUAAGCAAACUGGUGUAAGAGUUUCUGCAGCUUUUUUGGCAAUUAUUACACCUACUUGGGUAUUGCCAGUGUAAAAUAUUUUGUCCCAUUUUUCGUUUAGUAAAGCUGUUGUUUCAGUUACAGCUCCAUUCACGAU
B2: GS3317 (nucleic acid)
sense: CAGGACUGUCCAGUUAGAUCUAGAGUCAAAAUGCCCAAAUCAUCCAAAAAGUAAGGUGGUAUAAGAAGAAGCUUAACGUUUAUAGACGUAACUGAAUCUCGGAAGAACAGCUCUUUCCUAGCAAGCAAGUAGUUGUGAAAUUACCUGCUCCUAGGUUUAUUUUUUAUUUUCAGGUGGAAUAUUGAUGAUCGCUGGAUCCACAAAAUGUAAAUUAAAAAAAUAAAAACAAAUAUCUGGUGACUGAAGGAUUUCAUGUAGUGACUAAACGUCAGUACAAGUCACAGAGUACUGAUCAAAACUACAGAAUUAUAUCUCGACGUCUUCCCUGAAGAUGAUAAAAGAUUCACCCACAACAUAAAGCUUUCAUUAUAUAU
antisense: AUAUAUAAUGAAAGCUUUAUGUUGUGGGUGAAUCUUUUAUCAUCUUCAGGGAAGACGUCGAGAUAUAAUUCUGUAGUUUUGAUCAGUACUCUGUGACUUGUACUGACGUUUAGUCACUACAUGAAAUCCUUCAGUCACCAGAUAUUUGUUUUUAUUUUUUUAAUUUACAUUUUGUGGAUCCAGCGAUCAUCAAUAUUCCACCUGAAAAUAAAAAAUAAACCUAGGAGCAGGUAAUUUCACAACUACUUGCUUGCUAGGAAAGAGCUGUUCUUCCGAGAUUCAGUUACGUCUAUAAACGUUAAGCUUCUUCUUAUACCACCUUACUUUUUGGAUGAUUUGGGCAUUUUGACUCUAGAUCUAACUGGACAGUCCUG
B3: GS3312 (nucleic acid)
sense: CUGCUGGUAGUGACAAGGGCACAGAACACGUCUGGGAAAUAAGCCAGAGCGUGGGCAUGAUAAUUGGUGGAAUUUUAGAAAAUUUGCUCAUGCUUAUGGGAAAAGUUCCCAGCUUAACGAGGAGGCAAGUACGAUAUAGCUGUAUGACAAGAUACUAUGACUGUAGUAAAGCUAAGAGGCUACUUGGAUAUACACCAGAAGUCCACCUGUGGGAAGGCAUAGAGAGGUCAGUUGCUUGGUUCAAAAAUCAGAGUUAAUUAUCGAAGCCCGAAUGAAUACUUCAUAUUACUAAACUUGCCCGAAUUAAAAUUCUGGCUAGCUUAGUUAUCAAAUAAAAAUUGAUAGUUAAGUUGAUCUUUCAUUGAUGAAUAUAUAAGUACUUAACCUUAUCAUUCAAU
antisense: AUUGAAUGAUAAGGUUAAGUACUUAUAUAUUCAUCAAUGAAAGAUCAACUUAACUAUCAAUUUUUAUUUGAUAACUAAGCUAGCCAGAAUUUUAAUUCGGGCAAGUUUAGUAAUAUGAAGUAUUCAUUCGGGCUUCGAUAAUUAACUCUGAUUUUUGAACCAAGCAACUGACCUCUCUAUGCCUUCCCACAGGUGGACUUCUGGUGUAUAUCCAAGUAGCCUCUUAGCUUUACUACAGUCAUAGUAUCUUGUCAUACAGCUAUAUCGUACUUGCCUCCUCGUUAAGCUGGGAACUUUUCCCAUAAGCAUGAGCAAAUUUUCUAAAAUUCCACCAAUUAUCAUGCCCACGCUCUGGCUUAUUUCCCAGACGUGUUCUGUGCCCUUGUCACUACCAGCAG
B4: ES52: dsRNA trigger SEQ ID NO 113; gene target Hypotethical effector (nucleic acid)
DNA: ATGTTCAAAAAATTTATTTTCCTCTCAAGCCAGGCCTTAATGGTACTTTCGAATCCTCTTTATATTGGTGATAATCATCTTCCGAGCGACCAAAATAATCCGTTCTTAATATCCTATGATTGGAAAGCTGGCTTTACAAGCGAATTCGAACTTCATGATTCCTGCAATGCAACACAGAAAAAACAGCTGCAAGACGGCCTCTCTGACGCTGTGACACTTGCTAGGCATGCTAAAGAACATATTCTTGTGAAGGGAACTGAATCACCCATATATAAGAAATATTTCGGTCAAGGTCCTACAGGATCGGTCCTGGGATGGTATGACAAAATTGCTTCTTCTGACCGAAAAGACATCCTTTTCCGTTGTGATGACCCCGATAAGAATTGCCAAACTCAACCTCAATGGGCTGGACATCACCGCGGAAAAAATGCGTCATTAGAGACAGTGATCTGCGAGCTTTCATTTCTCACTCGGCTTCCACTTGAAGCTC
B5: GS3311 (nucleic acid)
sense: CUUCUCGGUAAUUCCGCAACAUUUUUAACCAUGACAUUCCAUUUCGUACAUGCUCUUGAUAUUCCGAUAACGUCAGCCUCUUGAAAUGCAUCACUUCCUAUGGCAGUAGUGGGCACUUGGCCGCAAAAAACUACUAGUGGUGUACCGUCAGAUAGAGCGUCCUGCAUCGGUGUUAUGACAUUUGUUGCACCAGGGCCAGAAGUAACUAGAAUCACCCCAGGAAGUCCACUAGCUCUGGCAUAGCCUUCAGCCAUAUGUCCAGCACCCUGUUCAUGUUUCGGUAGAAUAAAAUCGAAGUGCCUUGAAUUAUAAAUAGCGUCGAAAACGGGAAGAAUUGCUCCACCAGGAUAACCGAAAAUAUGUUUUACACCUUGCCGUAACAUCAUUUCGUGAAAUAU
antisense: AUAUUUCACGAAAUGAUGUUACGGCAAGGUGUAAAACAUAUUUUCGGUUAUCCUGGUGGAGCAAUUCUUCCCGUUUUCGACGCUAUUUAUAAUUCAAGGCACUUCGAUUUUAUUCUACCGAAACAUGAACAGGGUGCUGGACAUAUGGCUGAAGGCUAUGCCAGAGCUAGUGGACUUCCUGGGGUGAUUCUAGUUACUUCUGGCCCUGGUGCAACAAAUGUCAUAACACCGAUGCAGGACGCUCUAUCUGACGGUACACCACUAGUAGUUUUUUGCGGCCAAGUGCCCACUACUGCCAUAGGAAGUGAUGCAUUUCAAGAGGCUGACGUUAUCGGAAUAUCAAGAGCAUGUACGAAAUGGAAUGUCAUGGUUAAAAAUGUUGCGGAAUUACCGAGAAG
B6: GS3310 (nucleic acid)
sense: CGUCGACCUCAAAAGCAGAGAAGUUGGGCGAGUUGAUUAUUGCUUCUACGGAGAAAGCCUGUAUAACUGUAGGUUCGUAGCUUUGAGCAUUCAAAAAUUUGUUGUAAACGAUUUUAGUAGAUGAGUAUUCACUUGGCAAAUGAGAGAUUUGAUCUGCUAUUGUUUGAGCGUCUGCAAAGGUUGGAAUAUCUUUCCCUACGCCAGAGAAACUUAAAACAAUAUUUUUACUACUUGACCGACUCAAUUGUGCCUUAGCCUUCUCUCCCAAUACCACAAUAUCGGCAUUGGGGUUUUCAGAGAGCAUUUUUCGAACGUGUUUACUUAAGCCUGAAUGAAUACCGCCGCACAAUCCUUUAUCUGAGCUUGCAACUACAAUCAAGUACUUUUGGUCAUCUUUU
antisense: AAAAGAUGACCAAAAGUACUUGAUUGUAGUUGCAAGCUCAGAUAAAGGAUUGUGCGGCGGUAUUCAUUCAGGCUUAAGUAAACACGUUCGAAAAAUGCUCUCUGAAAACCCCAAUGCCGAUAUUGUGGUAUUGGGAGAGAAGGCUAAGGCACAAUUGAGUCGGUCAAGUAGUAAAAAUAUUGUUUUAAGUUUCUCUGGCGUAGGGAAAGAUAUUCCAACCUUUGCAGACGCUCAAACAAUAGCAGAUCAAAUCUCUCAUUUGCCAAGUGAAUACUCAUCUACUAAAAUCGUUUACAACAAAUUUUUGAAUGCUCAAAGCUACGAACCUACAGUUAUACAGGCUUUCUCCGUAGAAGCAAUAAUCAACUCGCCCAACUUCUCUGCUUUUGAGGUCGACG
B7: GS3314 (nucleic acid)
sense: CGAGGUUCAUGGUAGUUCCCUAUCUAAGGAUGAUCUUCGAGAUUUGAGAAAUAUUGACCUCUCAGACUUUUCCUACCGACAGCCCUAUAUGCAAGAAAGAAGAGACGCCGUUGGCCAAAGAGGAAACAUAAGUAAUAGAGGAAGAGGAAGGGUGAGAGGUAUAGGAAGGGAUCCAAACGUGGACCUUCCCCAACCCUUAAGUAGUCAACCUUUAAGGAGGGACGAACAAGCAUUUCAAAGGCAACUAGCAGUCCAAUCCUCUCAGUCUGUCACGACAAGGAACUCCGUCCAUCAAAAUACAACACCAGCAUCGCAAAUAUCAAAUAAUACUCCAAAAUCACAGUCUCAAGUAACAAGAUCCCCCCAGACUUCUAAUAACCUUGAAAGUGCAAACAUU
antisense: AAUGUUUGCACUUUCAAGGUUAUUAGAAGUCUGGGGGGAUCUUGUUACUUGAGACUGUGAUUUUGGAGUAUUAUUUGAUAUUUGCGAUGCUGGUGUUGUAUUUUGAUGGACGGAGUUCCUUGUCGUGACAGACUGAGAGGAUUGGACUGCUAGUUGCCUUUGAAAUGCUUGUUCGUCCCUCCUUAAAGGUUGACUACUUAAGGGUUGGGGAAGGUCCACGUUUGGAUCCCUUCCUAUACCUCUCACCCUUCCUCUUCCUCUAUUACUUAUGUUUCCUCUUUGGCCAACGGCGUCUCUUCUUUCUUGCAUAUAGGGCUGUCGGUAGGAAAAGUCUGAGAGGUCAAUAUUUCUCAAAUCUCGAAGAUCAUCCUUAGAUAGGGAACUACCAUGAACCUCG

The first data set has as its system E. necator. Description: Leaf disc assay, dry inoculum (settling tower), decrease in disease severity / hyphal growth (Example 2). To be noted: decrease in disease severity (hyphal growth) relative to untreated control; time point 1 (untreated control hyphal growth ≥50%); value ± SE.
Turning to B1, the “% decrease =/− SE TP1” value was 9 ± 9%.
As to B2, the “% decrease =/− SE TP1” value is on record as 21 ± 9%.
On to B3, for which the “% decrease =/− SE TP1” value was 13 ± 4%.
Still for that read-out and setting: with B4 the figure was 6 ± 1%.
On the same count and under the same terms, then B5, with 29 ± 7%.
Same read-out and setting: with B6 the figure was 22 ± 8%.
Take B7: the “% decrease =/− SE TP1” value is reported as 17 ± 8%.

The same data set, now with this note: decrease in disease severity (hyphal growth) relative to untreated control; time point 2; value ± SE.
Turning to B1, the “% decrease =/− SE TP2” value worked out at 13 ± 9%.
For B2, the “% decrease =/− SE TP2” value stood at 17 ± 9%.
Take B3: the “% decrease =/− SE TP2” value is 19 ± 6%.
Consider B4, for which the “% decrease =/− SE TP2” value turned out to be 6 ± 2%.
As for B5, the “% decrease =/− SE TP2” value is 24 ± 7%.
B6: the “% decrease =/− SE TP2” value stood at 11 ± 8%.
Same read-out and setting: then B7, with 12 ± 8%.

The values above are taken from patent publication US12077763B2, “RNA-based control of powdery mildew” (Greenlight Biosciences, Inc., priority 2021, dated 2024).
